A word on the Kd: it is the equilibrium constant for the complex coming apart. The koff is a measure of how fast the partners let go of each other. What is called kon is the second-order rate constant of association. Low readings indicate slow association, high ones fast association. What is called t½ is how long it takes for the measured level to halve. The low end stands for rapid decline, the high end for slow decline.

The record followed here is patent publication US20240158497A1 (published 2024).

The target of assay [1] is T1, Macaca Fascicularis GP130 extracellular domain expressed with a C-terminal myc-myc-hexahistidine tag (Macaca fascicularis, UniProt P40189 23-619 (human entry)).
T1 construct: also called mfGP130-MMH; mfGP130-mmH
T1 chain: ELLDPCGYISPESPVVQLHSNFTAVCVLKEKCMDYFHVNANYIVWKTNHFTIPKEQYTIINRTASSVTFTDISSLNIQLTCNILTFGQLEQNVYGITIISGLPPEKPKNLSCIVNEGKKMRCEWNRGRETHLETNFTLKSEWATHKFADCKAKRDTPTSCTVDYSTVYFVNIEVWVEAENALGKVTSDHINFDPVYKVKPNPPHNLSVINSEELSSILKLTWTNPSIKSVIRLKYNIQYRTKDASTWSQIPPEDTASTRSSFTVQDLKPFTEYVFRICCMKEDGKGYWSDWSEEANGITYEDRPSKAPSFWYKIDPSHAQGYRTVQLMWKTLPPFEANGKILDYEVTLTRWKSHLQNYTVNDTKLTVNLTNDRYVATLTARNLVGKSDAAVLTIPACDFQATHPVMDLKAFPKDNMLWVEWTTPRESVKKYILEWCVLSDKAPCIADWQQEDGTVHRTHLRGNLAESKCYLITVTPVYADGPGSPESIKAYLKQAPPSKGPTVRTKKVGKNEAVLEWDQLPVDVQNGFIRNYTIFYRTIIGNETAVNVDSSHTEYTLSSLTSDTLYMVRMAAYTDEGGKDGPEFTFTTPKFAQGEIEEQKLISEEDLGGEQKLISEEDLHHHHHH
The experiment in a line: SPR, bsAb captured by anti-hFc, 37C. Summed up: (§1)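 Anti-hFc-captured bispecific antibodies received 3-fold serial dilutions of LEPR or GP130 (100 nM–3.7 nM) in HBS-ET, pH 7.4, injected for 4 min with 10 min dissociation at 25 °C or 37 °C. ka and kd came from a 1:1 binding model with mass transport limitation, and KD and t½ were calculated from these rate constants.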
In general terms: SPR reads the build-up and loss of mass on a sensor chip optically.

The target of assay [2] is T2, human GP130 extracellular domain expressed with a C-terminal myc-myc-hexahistidine tag (human, UniProt P40189 23-619).
T2 construct: also called hGP130-MMH; hGP130-mmH
The experiment in a line: SPR, bsAb captured by anti-hFc, 37C. Summed up:
as §1

Assay [3] addresses T1, Macaca Fascicularis GP130 extracellular …. The experiment in a line: SPR, bsAb captured by anti-hFc, 25C. The method in brief:
as §1

Assay [4] has as its target T2, human GP130 extracellular domain …. The experiment in a line: SPR, bsAb captured by anti-hFc, 25C. Summed up:
as §1

In assay [5] the target is T3, Macaca fascicularis GP130 extracellular domain expressed with a C-terminal myc-myc-hexahistidine tag (Macaca fascicularis, UniProt P40189 23-619 (human entry)).
T3 construct: Monomeric reagent; also called mfGP130-mmH; mfGP130-MMH
T3 chain: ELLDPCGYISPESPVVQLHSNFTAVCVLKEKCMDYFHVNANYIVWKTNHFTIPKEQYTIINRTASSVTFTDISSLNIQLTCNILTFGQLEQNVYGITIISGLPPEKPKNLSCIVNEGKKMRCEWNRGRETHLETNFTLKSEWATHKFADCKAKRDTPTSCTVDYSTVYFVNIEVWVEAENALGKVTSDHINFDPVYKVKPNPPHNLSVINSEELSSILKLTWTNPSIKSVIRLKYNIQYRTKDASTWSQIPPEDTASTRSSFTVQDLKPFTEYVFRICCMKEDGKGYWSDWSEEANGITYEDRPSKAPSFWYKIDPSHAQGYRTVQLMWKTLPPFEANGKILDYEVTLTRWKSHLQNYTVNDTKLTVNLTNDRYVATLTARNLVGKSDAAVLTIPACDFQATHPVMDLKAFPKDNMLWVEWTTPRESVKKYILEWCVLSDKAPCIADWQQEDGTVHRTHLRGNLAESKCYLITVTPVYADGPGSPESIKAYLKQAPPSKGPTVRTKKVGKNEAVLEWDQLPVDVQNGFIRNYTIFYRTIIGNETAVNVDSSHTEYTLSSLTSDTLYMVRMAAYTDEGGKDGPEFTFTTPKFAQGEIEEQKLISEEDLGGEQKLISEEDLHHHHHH
The experiment in a line: SPR (Biacore 4000), mAb captured on anti-human Fc, 37 C. As for the experimental part: (§2) Equilibrium dissociation constant (KD) for different GP130 reagents binding to purified anti-GP130 monoclonal antibodies were determined using a real-time surface plasmon resonance based Biacore 4000 biosensor. All binding studies were performed in 10 mM HEPES, 150 mM NaCl, 3 mM EDTA, and 0.05% v/v Surfactant Tween-20, pH 7.4 (HBS-ET) running buffer at 25° C. and 37° C. The Biacore sensor surface was first derivatized by amine coupling with a monoclonal mouse anti-human Fc antibody (GE, #BR-1008-39) to capture anti-GP130 monoclonal antibodies. […] Reagents tagged with “mmH” are monomeric, whereas reagents tagged with “mFc” are dimeric. Thus, for example, “hGP130-mmH” is also referred to as “monomeric human GP130,” and “hGP130-mFc” is also referred to as “dimeric human GP130.”
(§3) The association rate (k a) and dissociation rate (kd) were determined by fitting the real-time binding sensorgrams to a 1:1 binding model with mass transport limitation using Scrubber 2.0c curve-fitting software. Binding dissociation equilibrium constant (KD) and dissociative half-life (t ½) were calculated from the kinetic rates as: […]

Assay [6] concerns the target T4, human GP130 extracellular domain expressed with a C-terminal myc-myc-hexahistidine tag (human, UniProt P40189 23-619).
T4 construct: Monomeric reagent; also called hGP130-mmH; hGP130-MMH
The description is as above. As for the experimental part: as §2, §3

The target in assay [7] is T3, Macaca fascicularis GP130 extracellular …. The experiment in a line: SPR (Biacore 4000), mAb captured on anti-human Fc, 25 C. The method, then: as §2, §3

B1: bsAb19758D (bispecific antibody, V domains shown)
VH 1: EVQLVESGGGLVQPGGSLRLSCVASGFTFNKYDMHWVRQTTGKGLEWVSGIDTDGDTYYPGSVKGRFTISRENAENSLYLQMNGLRVGDTAVYYCARWPWSGFYGAFDIWGQGTMVTVSS
VH 2: EVQLVESGGGLVQSGGSLRLSCAASGFTFSRYEMNWVRQAPGKGLEWVAYISNTGTTRDYSDSVKGRFTISRDNAKNSLYLQMSSLRVEDTAVYYCVREKFSGTSDWFDPWGQGTLVTVSS
VL: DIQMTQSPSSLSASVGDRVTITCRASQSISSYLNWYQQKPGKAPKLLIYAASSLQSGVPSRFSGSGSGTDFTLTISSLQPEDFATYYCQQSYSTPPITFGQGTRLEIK
notes: LEPR x GP130 bispecific with common light chain
For B1, in assay [1], the “100 nM mfGP130-MMH Bound (RU)” value turned out to be 45 RU, the dissociation constant Kd is 18.2 nM, the dissociation rate constant (koff) stood at 0.0073 s⁻¹ and the kon was determined as 402000 M⁻¹ s⁻¹. In assay [1], this molecule gave a t½ of 1.6 min. In assay [2], the “100 nM hGP130-MMH Bound (RU)” value turned out to be 50 RU, the Kd was 16.7 nM, the koff was 0.00747 s⁻¹ and the kon stood at 448000 M⁻¹ s⁻¹. The molecule also returned a t½ in assay [2] of 1.5 min. Besides, in assay [3], the “100 nM mfGP130-MMH Bound (RU)” value is 46 RU, the Kd was found to be 16.5 nM, the koff stood at 0.00507 s⁻¹ and the kon was 307000 M⁻¹ s⁻¹. Also, in assay [3], the t½ is 2.3 min. In assay [4], the “100 nM hGP130-MMH Bound (RU)” value was 51 RU, the Kd was determined as 14.6 nM, the koff was 0.00457 s⁻¹ and the association rate constant (kon) is 313000 M⁻¹ s⁻¹. In assay [4], this molecule yielded a t½ of 2.5 min.

B2: MAb16637 (antibody, V domains shown)
VH: QVQLVQSGAEVKKPGASVKVSCKASGYTFTSLGISWVRQAPGQGLEWMGWISAYSGNRDYAQKFQGRVTMTTDTSTSTAYMELRSLRSDDTAVYYCARSLRFDYWGQGTLVTVSS
VL: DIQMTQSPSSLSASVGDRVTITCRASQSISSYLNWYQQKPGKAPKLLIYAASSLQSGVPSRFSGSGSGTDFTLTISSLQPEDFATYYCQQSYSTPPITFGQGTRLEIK
For B2, in assay [5], the “100 nM Ag Bound” value is 104 RU, the equilibrium dissociation constant (Kd) is 14.8 nM, the koff was 0.00263 s⁻¹ and the kon amounted to 178000 M⁻¹ s⁻¹. Moreover, the t½ in assay [5] stood at 4 min. For the same molecule, in assay [6], the “100 nM Ag Bound” value stood at 110 RU, the Kd was 17.3 nM, the off-rate constant (koff) amounted to 0.00342 s⁻¹ and the kon stood at 197000 M⁻¹ s⁻¹. For the same molecule, the t½ in assay [6] was found to be 3 min. In assay [7], the “100 nM Ag Bound” value is 87 RU, the Kd stood at 15.9 nM, the off-rate constant (koff) was determined as 0.00109 s⁻¹ and the on-rate (kon) turned out to be 68300 M⁻¹ s⁻¹. Moreover, the t½ in assay [7] came out at 11 min.

B3: MAb16636 (antibody, V domains shown)
VH: QLQLQESGPGLVKPSETLSLICTVSGGSISSNNYYWGWIRQPPGKGLEWIGNLYGSGSTYYNPSLKSRVTISVDTSKNQFSLKLSFVTAADTAVYHCARWDTNGGAFDIWGQGTMVTVSS
VL: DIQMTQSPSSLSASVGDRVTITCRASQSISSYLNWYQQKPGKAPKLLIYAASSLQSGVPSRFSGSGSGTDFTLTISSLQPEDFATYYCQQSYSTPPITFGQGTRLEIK
With B3, in assay [5], the “100 nM Ag Bound” value amounted to 25 RU, the Kd is 239 nM, the koff is 0.00945 s⁻¹ and the kon was 39500 M⁻¹ s⁻¹. In assay [5], this molecule had a t½ of 1.2 min. Further, in assay [6], the “100 nM Ag Bound” value turned out to be 50 RU, the Kd is 71.6 nM, the koff is 0.00441 s⁻¹ and the kon was 61600 M⁻¹ s⁻¹. The t½ in assay [6] was determined as 2.6 min. Further, in assay [7], the “100 nM Ag Bound” value amounted to 23 RU; the affinity, expressed as Kd, was 107 nM; the koff was determined as 0.00216 s⁻¹; the kon stood at 20100 M⁻¹ s⁻¹. In assay [7], this molecule showed a t½ of 5 min.

B4: MAb16622 (antibody, V domains shown)
VH: EVQLVESGGGVVRPGGSLRLSCTASGFTFDDYGMSWVRQAPGKGLEWVSGINWNGGRTEYADAVKGRFIISRDNAKNSLYLQMNSLRAEDTALYFCARTELRWDYWGQGTLVTVSS
VL: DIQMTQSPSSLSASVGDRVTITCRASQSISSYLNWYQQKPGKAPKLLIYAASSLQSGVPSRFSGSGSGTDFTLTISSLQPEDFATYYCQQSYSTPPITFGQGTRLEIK
Take B4: in assay [5], the “100 nM Ag Bound” value came out at 28 RU, the Kd was 198 nM, the koff stood at 0.0537 s⁻¹ and the kon is 272000 M⁻¹ s⁻¹. Besides, the t½ in assay [5] was 0.2 min. In assay [6], the “100 nM Ag Bound” value worked out at 30 RU, binding was characterised by a dissociation constant (Kd) of 225 nM, the koff came to 0.0574 s⁻¹ and the kon was found to be 255000 M⁻¹ s⁻¹. The t½ in assay [6] came to 0.2 min. In addition, in assay [7], the “100 nM Ag Bound” value is 34 RU, binding was put at a Kd of 151 nM, the off-rate constant (koff) is 0.02 s⁻¹ and the kon came to 132000 M⁻¹ s⁻¹. The t½ in assay [7] was 0.6 min.

B5: MAb16614 (antibody, V domains shown)
VH: QVQLVESGGGVVQPGGSLRLSCAASGFTFSTYDIHWVRQAPGKGLEWVAVISFDGSNRNYGDSVKGRFTISRDNSDNTLFLEMNNLRFEDTAVYYCAKEGYGVDFQHWGQGTLVTVSS
VL: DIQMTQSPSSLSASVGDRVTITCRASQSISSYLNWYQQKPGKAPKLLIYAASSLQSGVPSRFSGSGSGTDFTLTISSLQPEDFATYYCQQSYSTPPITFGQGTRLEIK
For the molecule B5, in assay [5], the “100 nM Ag Bound” value was found to be 8 RU, the Kd was determined as 72.2 nM, the koff is 0.0267 s⁻¹ and the kon stood at 370000 M⁻¹ s⁻¹. This molecule registered a t½ in assay [5] of 0.4 min. For the same molecule, in assay [6], the “100 nM Ag Bound” value is 10 RU, the Kd was 121 nM, the koff was found to be 0.03 s⁻¹ and the kon amounted to 247000 M⁻¹ s⁻¹. In assay [6], this molecule returned a t½ of 0.4 min. Also, in assay [7], the “100 nM Ag Bound” value was determined as 16 RU, the dissociation constant (Kd) turned out to be 139 nM, the koff was found to be 0.0104 s⁻¹ and the kon was 74400 M⁻¹ s⁻¹. The molecule also showed a t½ in assay [7] of 1.1 min.

B6: MAb16618 (antibody, V domains shown)
VH: QVQLQESGPGLVKPSETLSLTCTVSGGSISNYYWTWIRQPPGKGLEWIGHISNSGTTNYNPSLKSRVTISVDTSKNQFSLKLTSVTAADTAVYYCARLPLGIAAVDTDYYYYFGMDVWGQGTTVTVSS
VL: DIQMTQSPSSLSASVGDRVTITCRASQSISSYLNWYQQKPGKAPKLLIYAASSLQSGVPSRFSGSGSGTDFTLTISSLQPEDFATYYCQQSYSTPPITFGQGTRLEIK
Take B6: in assay [5], the “100 nM Ag Bound” value was found to be 26 RU, the Kd was 90.3 nM, the koff was 0.12 s⁻¹ and the kon was 1.33e+06 M⁻¹ s⁻¹. In assay [5], the t½ stood at 0.1 min. For the same molecule, in assay [6], the “100 nM Ag Bound” value amounted to 36 RU, the Kd is 103 nM, the off-rate (koff) was found to be 0.112 s⁻¹ and the kon is 1.08e+06 M⁻¹ s⁻¹. In assay [6], this molecule displayed a t½ of 0.1 min. In assay [7], the “100 nM Ag Bound” value was 40 RU, the Kd was determined as 166 nM, the koff was found to be 0.0621 s⁻¹ and the kon stood at 374000 M⁻¹ s⁻¹. In addition, the t½ in assay [7] stood at 0.2 min.

B7: MAb16623 (antibody, V domains shown)
VH: EVQLVESGGGLVQPGGSLRLSCAASGLTFSSYEMNWVRQAPGKGLEWVSHISSAGSTKYYADSVKGRFTISRDNAKNSLFLQMNSLRAEDTAIYYCAGYNYAYYYFGVDVWGQGTTVTVSS
VL: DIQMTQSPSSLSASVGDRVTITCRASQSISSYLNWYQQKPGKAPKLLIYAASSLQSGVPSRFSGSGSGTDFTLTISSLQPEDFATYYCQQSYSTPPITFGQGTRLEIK
In the case of B7, in assay [5], the “100 nM Ag Bound” value came to 60 RU; the affinity, expressed as Kd, was 44.3 nM; the koff came to 0.0156 s⁻¹; the kon is 352000 M⁻¹ s⁻¹. The t½ in assay [5] amounted to 0.7 min. Moreover, in assay [6], the “100 nM Ag Bound” value was 68 RU, binding was put at a Kd of 32.2 nM, the koff was found to be 0.0123 s⁻¹ and the kon is 381000 M⁻¹ s⁻¹. This molecule gave a t½ in assay [6] of 0.9 min. Further, in assay [7], the “100 nM Ag Bound” value came to 74 RU; the affinity, expressed as Kd, was 25.5 nM; the koff amounted to 0.00476 s⁻¹; the kon stood at 187000 M⁻¹ s⁻¹. In assay [7], the t½ is 2.4 min.
